This note sets out measurements from patent US20220235118A1 (IMMUNOME, published 2022).

In experiment [1] the target is T1, SARS-CoV-2 Spike S1 domain K417N, E484K, N501Y, D614G (SARS-CoV-2, UniProt P0DTC2 16-685).
T1 construct: domain: S1; also called S. African (K417N, E484K, N501Y, D614G); B.1.351
The experiment can be described thus: HTRF, soluble S1 construct. In general terms: Time-resolved FRET reads energy transfer from a long-lived donor to a nearby acceptor.

In experiment [2] the target is T2, SARS-CoV-2 Spike S1 domain ΔHV69/70, ΔY144, N501Y, A570D, D614G, P681H (SARS-CoV-2, UniProt P0DTC2 16-685).
T2 construct: domain: S1; also called U.K. (B.1.1.7); DHV69/70, DY144, N501Y, A570D, D614G, P681H
The experiment can be described thus: HTRF, soluble S1 construct.

Experiment [3] concerns the target T3, SARS-CoV-2 Spike S1 domain D614G (SARS-CoV-2, UniProt P0DTC2 16-685).
T3 construct: domain: S1
The experiment can be described thus: HTRF, soluble S1 construct.

Experiment [4] addresses T4, SARS-CoV-2 Spike S1 domain ΔHV69/70, Y453F, D614G (SARS-CoV-2, UniProt P0DTC2 16-685).
T4 construct: domain: S1; also called Denmark (ΔHV69/70, Y453F, D614G); DHV69/70, Y453F, D614G
The experiment can be described thus: HTRF, soluble S1 construct.

Experiment [5] deals with T5, SARS-CoV-2 Spike S1 domain A222S, D614G (SARS-CoV-2, UniProt P0DTC2 16-685).
T5 construct: domain: S1; also called Spanish (A222S, D614G)
The experiment can be described thus: HTRF, soluble S1 construct.

Experiment [6] deals with T6, SARS-CoV-2 Spike RBD A475V (SARS-CoV-2, UniProt P0DTC2 319-541).
T6 construct: domain: RBD
The experiment can be described thus: HTRF, soluble RBD construct.

Experiment [7] deals with T7, SARS-CoV-2 Spike RBD N439K (SARS-CoV-2, UniProt P0DTC2 319-541).
T7 construct: domain: RBD
The experiment can be described thus: HTRF, soluble RBD construct.

Experiment [8] concerns the target T8, SARS-CoV-2 Spike RBD E406Q (SARS-CoV-2, UniProt P0DTC2 319-541).
T8 construct: domain: RBD
The experiment can be described thus: HTRF, soluble RBD construct.

Experiment [9] has as its target T9, SARS-CoV-2 Spike RBD Y453F (SARS-CoV-2, UniProt P0DTC2 319-541).
T9 construct: domain: RBD
The experiment can be described thus: HTRF, soluble RBD construct.

In experiment [10] the target is T10, SARS-CoV-2 Spike RBD A352S (SARS-CoV-2, UniProt P0DTC2 319-541).
T10 construct: domain: RBD
The experiment can be described thus: HTRF, soluble RBD construct.

Experiment [11] deals with T11, SARS-CoV-2 Spike RBD K417N (SARS-CoV-2, UniProt P0DTC2 319-541).
T11 construct: domain: RBD
The experiment can be described thus: HTRF, soluble RBD construct.

The target in experiment [12] is T12, SARS-CoV-2 Spike RBD N501Y (SARS-CoV-2, UniProt P0DTC2 319-541).
T12 construct: domain: RBD
The experiment can be described thus: HTRF, soluble RBD construct.

B1: PR201_00151 (antibody, V domains shown)
VH: RVTLRESGPALVKPTQTLTLTCTFSGFSLNTSGMCVSWIRQPPGKALEWLARIDWDDDKYYSTSLETRLTISKDTSKNQVVLTMTNLDPVDTGTYYCARISIQSRGGGADYWGQGTLVTVSS
VL: DIQMTQSPSSLSASVGDRVTITCRASQSISSYLHWYQQKSGKAPKLLIFVASTLQSGVPSRFSGSGSGTDFTLTISSLQPEDSAAYYCQQSYSPPWTFGQGTKVEIK
Regarding B1, the fold over background in [1] was found to be 1.05 fold over background; in [2], 4.22 fold over background; in experiment [3], 7.25 fold over background; in [4], 6.53 fold over background; in experiment [5], 7.29 fold over background; in [6], 5.7 fold over background. In addition, the fold over background is 6.03 fold over background in experiment [7]; 8.3 fold over background in experiment [8]; 5.48 fold over background in experiment [9]; 7.06 fold over background in experiment [10]; 1.09 fold over background in [11]; 6.16 fold over background in experiment [12].

B2: PR194_00292 (antibody, V domains shown)
VH: QVQLQQWGAGLLKPSETLSLTCAVYGGSLSGYYWSWIRQPPGKGLEWIGEINHSGSTNHNPSLKSRVSISVDTSKNQFSLKLSSVTAADTAVYYCARAWKYSSSWYSGGIYYGMDVWGQGTTVTVSS
VL: QSALTQPASVSGSPGQSITISCSGTSSDVGSYNLVSWYQQHPGKAPKLMIYEGTKRPSGVSNRFSSSKSGNTASLTISGLQAEDEADYYCCSYAGFSTWVFGGGTKLTVL
Consider B2, for which the fold over background is 2.26 fold over background in experiment [1]; 2.37 fold over background in experiment [2]; 1.06 fold over background in experiment [3]; 2.59 fold over background in experiment [4]; 1.02 fold over background in experiment [5]; 1.02 fold over background in experiment [6]. The fold over background in experiment [7] is 1.06 fold over background; in [8] it was 0.967 fold over background; in experiment [9], 0.974 fold over background; in experiment [10] it was 0.94 fold over background; in experiment [11] it was 1.03 fold over background; in experiment [12], 0.996 fold over background.

B3: PR199_00255 (antibody, V domains shown)
VH: QVQLVESGGGVVQPGRSLRLSCAASGFTFSTYGMHWVRQAPGKGLEWVAVIWYNGINKHYADSVKGRFTISRDNSKNTLYLQMSSLRVEDTAVYYCARDWGTLTTLFDFWGQGTLVTVSS
VL: DIQMTQSPSSLSASVGERATITCRASQSISSHLNWYQQKPGKAPKFLIYGASSLQSGVPSRFSGSGSGTDFTLTISSLQPEDFATYYCQQSYSTPPWTFGQGTKVEIK
notes: also called IMM20279; PR190_00255
On to B3, for which the fold over background in [1] was found to be 9.48 fold over background; in experiment [2], 7.29 fold over background; in experiment [3], 11.2 fold over background; in experiment [4] it was 9.63 fold over background; in [5] it was 9.3 fold over background; in experiment [6], 7.64 fold over background. Besides, the fold over background in experiment [7] stood at 6.09 fold over background; in experiment [8], 10.9 fold over background; in experiment [10], 8.26 fold over background; in experiment [11], 7.29 fold over background; in experiment [12], 6.15 fold over background.

B4: PR197_00647 (antibody, V domains shown)
VH: QVQLVESGGGVVQPGRSLRLSCAASGFTFSSYAMHWVRQAPGKGLQWVTLISYDGGDKYYADSVRGRFTISRDNSKNTLYLQMNSLRTEDTAVYYCARDRPQTGDWFPPIPTGVLDVWGQGTTVTVSS
VL: DIQMTQSPSSLSASVGDRVTITCRASQGISNYLAWFQQKPGKAPKSLIYAASSLQSGVPSRFSGSESGTDFTLTISSLQPEDFATYYCQQYHSYPITFGQGTRLEIK
As to B4, the fold over background worked out at 7.72 fold over background in [1]; 1.1 fold over background in experiment [2]; 8.3 fold over background in experiment [3]; 1.07 fold over background in experiment [4]; 9.54 fold over background in [5]; 0.999 fold over background in experiment [6]. For the same molecule, the fold over background in experiment [7] is 1.04 fold over background; in experiment [8], 1.03 fold over background; in experiment [9], 1.11 fold over background; in experiment [10] it was 1.04 fold over background; in experiment [11] it was 1.03 fold over background; in [12] it was 1.06 fold over background.

B5: PR194_00364_b (antibody, V domains shown)
VH: EVQLVESGGGLVKPGGSLRLSCSASGFTFTTYTMNWVRQAPGKGLEWVSSISSTGLSIYYADSVKGRFTISRDNAKNSLYLQMNSLRAEDTAVYYCARDPSPTTIYYYYYMDVWGKGTTVTVSS
VL: QSALTQPASVSGSPGQSITISCTGTSSDVGTYNLVSWYQHYPGKAPKLIIYEVSKRPSGVSDRFSGSKSGNTASLTISGLQAEDEADYYCCSYAGSTTGYVVFGGGTKLTVL
Take B5: in [10], the fold over background was determined as 0.917 fold over background.

B6: PR194_00068 (antibody, V domains shown)
VH: EVQLLESGGGLVQPGGSLRLSCSASGFTFTNYAMSWVRQAPGKGLEWVSTISGSGGSTYYADSVKGRFTISRDNSKSTLFLQMNSLRAEDTAIYYCANSGPTGDLDYWGQGTLVTVSS
VL: SYELTQPPSVSVSPGQTTLSLTCSGDKLGNKYVCWYQQKPGQSPVLVIYQDTKRPSGIPERVSGSNSGDTATLTISGTQAMDEADYYCQAWDSSTAVFGGGTKLTVL
Regarding B6, the fold over background in experiment [7] came out at 1.06 fold over background.

B7: PR196_00413_a (antibody, V domains shown)
VH: QVQLVQSGAEVKKPGSSVKVSCKASGGTFSSYAITWVRQAPGQGLEWMGGIIPIFGTANYAQKFQGRVTITADESTSTAYMELSSLRSEDTAVYYCASDYGDSPLGYWGQGTLVTVSS
VL: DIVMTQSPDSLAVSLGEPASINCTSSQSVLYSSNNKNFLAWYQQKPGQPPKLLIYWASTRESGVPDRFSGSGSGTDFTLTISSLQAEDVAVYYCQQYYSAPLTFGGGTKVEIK
With B7, the fold over background worked out at 9 fold over background in [1]; 6.39 fold over background in experiment [2]; 9.92 fold over background in [3]; 9.68 fold over background in experiment [4]; 8.74 fold over background in [5]; 1.01 fold over background in [6]. Besides, the fold over background is 1.07 fold over background in experiment [7]; 1.02 fold over background in [8]; 1.06 fold over background in [9]; 1.07 fold over background in experiment [10]; 1.06 fold over background in experiment [11]; 1.08 fold over background in experiment [12].

B8: PR194_00453 (antibody, V domains shown)
VH: QLQLQESGPGLVKPSETLSLTCTVSGGSISSSSSYWGWFRQPPGKGLGWIRSIYYSGSTYYNPSLKSRVTMSVDTSKNQFSLKLSSVTAADTAVYYCARAKFSVWDNYRYPFDYWGQGILVTVSS
VL: not shown
With B8, the fold over background in [1] amounted to 9.57 fold over background; in experiment [2] it was 9.06 fold over background; in experiment [3], 9.55 fold over background; in experiment [4], 9.45 fold over background; in [5], 9.21 fold over background; in [6], 1.06 fold over background. Besides, the fold over background worked out at 1.05 fold over background in [7]; 0.99 fold over background in experiment [8]; 0.987 fold over background in experiment [9]; 1.11 fold over background in [10]; 1.1 fold over background in experiment [11]; 1.03 fold over background in experiment [12].
